In the supplement of paper PMC10567573 one finds protein stability index data, which are given here for 94 variants.

The chains are these.
B1: STEAP1 (parent)
chain: WMLTRKQFGLLSFFFAVLHAIYSL
B2: ZBED2 (parent)
chain: FHLAPARAGHHPNQYATCRLCGRQ
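Further: lentivirally expressed fusions sorted by FACS into six bins by GFP to DsRed ratio, PSI derived from sequencing read proportions per bin multiplied by bin number.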

In the first data set the parent is B1. Kind of data set: protein stability index of a GFP-peptide fusion (GPS, HEK-293T) (PSI 1-6); higher = more stable. To be noted: c terminus: a fixed tail appended.
Consider TMLTRKQFGLLSFFFAVLHAIYSL, for which the protein stability index was found to be 2.75.
As to FMLTRKQFGLLSFFFAVLHAIYSL, the protein stability index was determined as 1.71.
As to CMLTRKQFGLLSFFFAVLHAIYSL, the protein stability index came out at 1.82.
As for DMLTRKQFGLLSFFFAVLHAIYSL, the protein stability index worked out at 2.04.
On to AMLTRKQFGLLSFFFAVLHAIYSL, for which the protein stability index is 1.91.
As for QMLTRKQFGLLSFFFAVLHAIYSL, the protein stability index was determined as 1.85.
As for RMLTRKQFGLLSFFFAVLHAIYSL, the protein stability index amounted to 2.01.
With MMLTRKQFGLLSFFFAVLHAIYSL, the protein stability index worked out at 1.88.
With GMLTRKQFGLLSFFFAVLHAIYSL, the protein stability index worked out at 1.91.
Consider PMLTRKQFGLLSFFFAVLHAIYSL, for which the protein stability index worked out at 2.13.
On the same count and under the same terms, the figure for VMLTRKQFGLLSFFFAVLHAIYSL is 2.18; for EMLTRKQFGLLSFFFAVLHAIYSL it is 1.58.
With LMLTRKQFGLLSFFFAVLHAIYSL, the protein stability index was 2.24.
For WMLTAKQFGLLSFFFAVLHAIYSL, the protein stability index turned out to be 1.04.
Same read-out and setting: the figure for WMLTSKQFGLLSFFFAVLHAIYSL is 2.07.
For the variant WMLTNKQFGLLSFFFAVLHAIYSL, the protein stability index was found to be 2.12.
Same read-out and setting: the figure for WMLTPKQFGLLSFFFAVLHAIYSL is 2.2; for WMLTWKQFGLLSFFFAVLHAIYSL it is 2.1; for WMLTKKQFGLLSFFFAVLHAIYSL it is 1.52.
For WMLTMKQFGLLSFFFAVLHAIYSL, the protein stability index came out at 2.47.
Take WMLTFKQFGLLSFFFAVLHAIYSL: the protein stability index stood at 2.14.
As for WMLTYKQFGLLSFFFAVLHAIYSL, the protein stability index came out at 2.77.
With WMLTEKQFGLLSFFFAVLHAIYSL, the protein stability index was found to be 2.03.
As to WMLTCKQFGLLSFFFAVLHAIYSL, the protein stability index was determined as 1.52.
For WMLTTKQFGLLSFFFAVLHAIYSL, the protein stability index is 3.62.
On to WMLTHKQFGLLSFFFAVLHAIYSL, for which the protein stability index turned out to be 3.39.
Take WMLTGKQFGLLSFFFAVLHAIYSL: the protein stability index came to 2.29.
For the variant WMLTDKQFGLLSFFFAVLHAIYSL, the protein stability index is 1.96.
WMLTQKQFGLLSFFFAVLHAIYSL: the protein stability index was 2.21.

The variants in another data set derive from B2. The description is as above. Conditions: c terminus: a fixed tail appended.
Turning to FHLAPARAGHHPNQYATCRLCGAQ, the protein stability index turned out to be 1.85.
With FHLAPARAGHHPNQYATCRLCGNQ, the protein stability index turned out to be 2.07.
With FHLAPARAGHHPNQYATCRLCGIQ, the protein stability index came to 1.93.
Take FHLAPARAGHHPNQYATCRLCGDQ: the protein stability index was determined as 2.
As to FHLAPARAGHHPNQYATCRLCGMQ, the protein stability index amounted to 1.81.
As to FHLAPARAGHHPNQYATCRLCGQQ, the protein stability index came out at 2.43.
Regarding FHLAPARAGHHPNQYATCRLCGSQ, the protein stability index worked out at 1.52.
Consider FHLAPARAGHHPNQYATCRLCGEQ, for which the protein stability index came to 1.54.
For the variant FHLAPARAGHHPNQYATCRLCGWQ, the protein stability index is 2.46.
As to FHLAPARAGHHPNQYATCRLCGKQ, the protein stability index is 1.37.
For the variant FHLAPARAGHHPNQYATCRLCGFQ, the protein stability index was found to be 2.1.
Regarding FHLAPARAGHHPNQYATCRLCGCQ, the protein stability index was found to be 1.32.
As for FHLAPARAGHHPNQYATCRLCGYQ, the protein stability index was 1.83.
On the same count and under the same terms, the figure for FHLAPARAGHHPNQYATCRLCARQ is 1.03; for FHLAPARAGHHPNQYATCRLCMRQ it is 1.21; for FHLAPARAGHHPNQYATCRLCNRQ it is 1.56.
On to FHLAPARAGHHPNQYATCRLCLRQ, for which the protein stability index amounted to 2.57.
With FHLAPARAGHHPNQYATCRLCERQ, the protein stability index amounted to 1.93.
On to FHLAPARAGHHPNQYATCRLCFRQ, for which the protein stability index came to 1.95.
The same measure, in the same setting: the figure for FHLAPARAGHHPNQYATCRLCQRQ is 1.82; for FHLAPARAGHHPNQYATCRLCIRQ it is 2.08.
For FHLAPARAGHHPNQYATCRLCWRQ, the protein stability index stood at 1.7.
As for FHLAPARAGHHPNQYATCRLCTRQ, the protein stability index amounted to 2.82.
As to FHLAPARAGHHPNQYATCRLCYRQ, the protein stability index amounted to 2.12.
Same read-out and setting: the figure for FHLAPARAGHHPNQYATCRLCCRQ is 2.87; for FHLAPARAGHHPNQYATCRLCPRQ it is 2.92.
Take FHLAPARAGHHPNQYATCRLCHRQ: the protein stability index is 2.05.
The same measure, in the same setting: the figure for FHLAPARAGHHPNQYATCRNCGRQ is 1.31.
As for FHLAPARAGHHPNQYATCRYCGRQ, the protein stability index was 3.71.
Still for that read-out and setting: the figure for FHLAPARAGHHPNQYATCRVCGRQ is 2.27.
On the same count and under the same terms, the figure for FHLAPARAGHHPNQYATCRTCGRQ is 1.82; for FHLAPARAGHHPNQYATCRQCGRQ it is 1.18; for FHLAPARAGHHPNQYATCRHCGRQ it is 1.55.
For the variant FHLAPARAGHHPNQYATCRMCGRQ, the protein stability index came out at 1.94.
The same measure, in the same setting: the figure for FHLAPARAGHHPNQYATCRSCGRQ is 2.22; for FHLAPARAGHHPNQYATCRGCGRQ it is 2.82.
The same measure, in the same setting: the figure for FHLAPARAGHHPNQYATCRPCGRQ is 2.23.
As to FHLAPARAGHHPNQYATCRRCGRQ, the protein stability index turned out to be 1.92.
As for FHLAPARAGHHPNQYATCRLFGRQ, the protein stability index stood at 1.97.
Turning to FHLAPARAGHHPNQYATCRLMGRQ, the protein stability index came to 1.26.
For FHLAPARAGHHPNQYATCRLIGRQ, the protein stability index amounted to 1.74.
For FHLAPARAGHHPNQYATCRLPGRQ, the protein stability index came to 2.59.
For the variant FHLAPARAGHHPNQYATCRLYGRQ, the protein stability index turned out to be 1.73.
Still for that read-out and setting: the figure for FHLAPARAGHHPNQYATCRLHGRQ is 2.52; for FHLAPARAGHHPNQYATCRLTGRQ it is 2.72.
In the case of FHLAPARAGHHPNQYATCRLKGRQ, the protein stability index was determined as 2.31.
As to FHLAPARAGHHPNQYATCRLWGRQ, the protein stability index is 2.1.
In the case of FHLAPARAGHHPNQYATCRLAGRQ, the protein stability index stood at 3.59.
On to FHLAPARAGHHPNQYATCRLQGRQ, for which the protein stability index came to 2.08.
For FHLAPARAGHHPNQYATCRLNGRQ, the protein stability index worked out at 1.96.
On the same count and under the same terms, the figure for FHLAPARAGHHPNQYATCRLSGRQ is 3.43; for FHLAPARAGHHPNQYATCRLLGRQ it is 1.95; for FHLAPARAGHHPNQYATCRLCGRG it is 2.41.
Turning to FHLAPARAGHHPNQYATCRLCGRV, the protein stability index amounted to 1.7.
Still for that read-out and setting: the figure for FHLAPARAGHHPNQYATCRLCGRF is 3.46; for FHLAPARAGHHPNQYATCRLCGRY it is 1.53; for FHLAPARAGHHPNQYATCRLCGRP it is 1.91.
With FHLAPARAGHHPNQYATCRLCGRM, the protein stability index is 1.24.
With FHLAPARAGHHPNQYATCRLCGRT, the protein stability index is 1.65.
For the variant FHLAPARAGHHPNQYATCRLCGRS, the protein stability index was determined as 2.03.
For the variant FHLAPARAGHHPNQYATCRLCGRH, the protein stability index was 2.
Take FHLAPARAGHHPNQYATCRLCGRE: the protein stability index worked out at 2.12.
On the same count and under the same terms, the figure for FHLAPARAGHHPNQYATCRLCGRA is 1.9; for FHLAPARAGHHPNQYATCRLCGRL it is 2.19; for FHLAPARAGHHPNQYATCRLCGRC it is 1.84.
